Experimental data published in a protein production outcome set (Wang et al. 2014).

Assay: label from the status in PepcDB records

Sequence | protein production
MTITSKLKKRRSLSTLITKIIILVLAPIILGIFVQSYYFSKQIIWQEVDRTKQQTSALILNIFESHFAAIQIHHDSNSKSDVILDFYSERNEEALNYFFLSIDQSDPSHTPEFRFLTDHQGIIWDDGNAHFYGINDSMLDGLTSKVTFSNNWYYVTSITSMGARHLLLRRVPVLEPKTGEVMGYSYNAVVLDNNFALMEKLKNEGNVDNVVLVANDIPVASSLAGDESYKIFDVLKRKETQKKLDQLLIIQTPIEVNAAITNLKLLTVQDNQSVVTLQIQHFLAMLASVIGMIMIALMTKEWIENRVVEELGSLMSYTRSAREEKGFERFGGSDIEEFDHIGSTLESTFEELEAQKRSFRDLFNFALSPIMVWSEAGVLIQINPAARKELVIENDIETMHPVFKGFKDKLVPHLRMAAQGATLTGVNVPIGDKVFRWNLSPIRVDGDISGIIVQGQDITTLIEAEKQSNLARREAEKSAQARADFLAKMSHEIRTPINGILGVAQLLKDSVEAEEQKNQIDVLRHSGEHLLAVLNDILDFSKIEQGKFNIQKHPFSFADTMRTLENIYRPICENKGVELVIENQLDGNVEIFTDQVRLNQILFNLVSNAVKFTPSGCVRLHAELEQFYGADNSVLVVEISDTGIGIESDKLDEMFEPFVQEEATTTREYGGSGLGLTIVKNLVDMLDGDVQVRSQKGQGTTFVVTLPVKDRERVLAPLDSSQRVKPAELFDESLKVLLVEDNHTNAFILKAFCTKYKMQVDWAKDGLEAMEFLKDHSYDLILMDNQLPHLGGIETTKEIRQNLKLGTPIYACTADTAQETSDAFMEAGANYVLLKPIKENALHEAFVDFKQRFLIERT | failed
MNLFRSERGALALLLGVSALILLLGLGSRELWGPETRWANIALQMLQSGDYFDPYLKGAPYYDKPLPSYWLITASAWLMGGLGHWSLRLSSVIAAWLSIWLVYLIGERLFHKGTGLIAGWMLATTFYFAFWARVATADVLTVCGVLAAVWWYWRGPEDTRLGRYTVFFLILAATSLLKGLIGFVLPGLILLPHLLSQGRWKRHLNLRLVLALSIAALFYMVPFVLSHLYGAPSYGESGLSLVFRENVVRFFNPFDHVGPIYTYLIYLPAYTLPWAPCWILGLWLAARHWRQLQPNERWLVWALGLLFLFFTASGSRRSYYVLPLVPFAQLLGAWWLNRRLQLRQAVGKPVSRGWPLGFSCAALVMLLVLGVAYPWSNSGGGVMQFSADTRAAASRIAPWNQWRMVMVEIDNKLPMYLQNQGAPFYYVAETADFPRNGSSADFMAWLDKTSGQHWDPQRTLIFVQQKHDEPLMLGYLGEDHQLVRTTPTNGERLAKKPAQGSVAFIPRIPGN | failed
MLEAPLLSICIPAYNRPNWLQRGLESIAVGEGSDIEIVITDDSDTDQGQAIASEVLKNWSGSWCYEHHQQPLGMAQNWNRAIQWATGQYVMVLHDDDFFLPQGLGLLVNKLRQLGSSSPVLLFGVRVVDAQERVVKRQGFRQDKLLPPHDALIRLFSDSSFVRFPAMVIRRDLFTEVGYFNPDWREPCDLEMWMRLFARYGVYCCREATVAYRVHGQALTMGSFHGETVNILLRLFGELEKLNILTTRDIEFCKGLFFHQYILAGAWRQLRRRRWREFKQVMGLFDLPELKSLSCPVKWRFLRGLFSLTLEHHHHHH | failed
MSEKKAVIGVVTISDRASKGIYEDISGKAIIDYLKDVIITPFEVEYRVIPDERDLIEKTLIELADEKGCSLILTTGGTGPAPRDVTPEATEAVCEKMLPGFGELMRQVSLKQVPTAILSRQTAGIRGSCLIVNLPGKPQSIKVCLDAVMPAIPYCIDLIGGAYIDTDPNKVKAFRPKK | not failed
KPIKIRGPSHCAGCKEEIKHGQSLLALDKQWHVSCFKCQTCSVILTGEYISKDGVPYCESDYHAQFG | not failed
MRVSVVIPARNEEAYLPSALEAVLAQTLPPFEVIVVDNASTDRTREVAEAFGARVVFCGRKGVAYARQAGLLAARGEWVAMTDADSLPTPRWLERLAHKAPGAVAVYGPLRFYGVSPLEAAFSEWGYRAFLNLMALLGRPNLAGANMMVLKEAALKVGGFPEVEAREDVLLGWRLKALGPVRYARDALVLTSARRLQGGWGRFLLRQARNLLGDPRGYFGEAGERER | failed
MIIYNIVYPMILILLYEYLAVNYFKGDKSITSSYYYVIVLIPFFIFTNIITMAYVAKDESLSKTAYRFLSAPIDNSAIVLSKIISCTVISWGCSLILLIISKVLLSVNFEGSTLKILILFFTENFMAAAIGIFLGIVMKNFKTIKGILNIPISILGVLGGCFFPVGALGRTFEKVSYISPFTWINRGIISEVYDKSQTILVGTILVTLVFGIIFSIGASILFNKEVFL | failed
MILAILQARMSSTRLPGKVLMPLQRQPMIVRQIERVARSKRIDKLVVATSDRPEDDAIEAAVRREGIAVFRGSLDNVQQRFIGALDAHPADHVVRLTADCPLADPTLIDATIDLCLSKGADYVSNTPEGHAHPKGTDVEVMTAAALRRAAAEATTKEAFEHVTWDLWNQPQRWTCAWLPCFPDQGAVRWTVDRPDDYAFVAAVYDALYPANRAFTSDDIRAFVAGRPDLQDYGGDRRALEHHHHHH | failed
MLSERRLKVLRAIVQDYVGTEEPVGSKALTERHNLGVSPATVRNDMAALEDEGFIAQPHTSAGRIPTDKGYRLFVDKLAGVKPMTAPERRAIQNFLEGAVDLDDVVARTVRLLAQLTRQVAVVQYPSLTRSTVRHVELLSLAPARLMLVLITDTGRVEQRMVDCPAPFGEASLADLRARLNSRVAGRRFADVPALVEDLAEPFEAEDRGTVSTVLSTLLETLVEENEERLMIGGTANLTRFGHDFPLVIRPVLEALEEQVVLLKLLGEAKDPGVTVRIGHENAHEGLNSTSVVSVGYGSGGEAVAKLGVVGPTRMDYPGTMGAVRAVARYVGQILAES | failed
MAALSNLKQCPPFSTLPDLALRHNHIPELERYPQINLNSELLANPAGQRYYGGQSFVSVNEGVLKRIARSFFNGGFWKTLEEARSPETREQAPLIAQAGDLIAQFLGLATGLRILPHTQQLSAERIAQFVETRDWLNSDVRYLAWNQHFFCLAVAGVDDVVRIYTKSSSATTATVLKSPSQTQITCMAWRPLCASEIVIGCRQGLCFWEVDSTLHLGRTNAPSEIFKYPNNLPITSMQWNKDGTQLATASIGDRSIIIWQPDTGMMQPLKRLGPPGSLLKWSPDNDWLFAATVDRVFRVWNCHQQWTTERWVCGPGGYVQTACWSPCGRFLLFVSSAEPILYRLQFVQQSLLSSSADEKEILPIADLNACSIDANRTLVGGPAQQLAWDPHGNYLVVTFKATNCIAVFRTFIQKFDLQISAAYYLSGETAAEHPSFICFQPLYEDNDRSVLTIAWSSGRIQYYAFD | failed
MARRWTPQRFVMLRRVRVVICVTTVTLASVLAFGVGARKTVALTVNGETTTVTTYAMSVDRLLQEQQVKVKTHDLVESTSSGTLQNHSVVTVRSAYQTTVTIDGQEVPFWTVATSADQLLGFFEANEAEASKITVNIDNVYNKLTGGLVINQNGPVTVIADGKSSVSPNGKLPAASILDSKGIILNKEDRVSVEKDNGETILRVQRVTHDEQTRTKTVPHGTQTIIDASLQPGEAVVRQEGEDGEIQQTYDVTYVDGVEESEKLINEVTTKIAIDQIIAVGPEKTESSDADNADNGQADSGSNDSDSSKSDKKDESDKKDSDSTDKKNDSSEKNDSTSTPTTEPTQTPTPTPTPTQQQQQTQTTTNPSDGCRLYHPSAAQAQTYAAGAAAQYGWTGQHWTNLVKLWNRESSWLWYSENASSGAYGIPQSLPGSKMASFGANWRDDAAVQIDWGLNYIAQRYGNPTKAREHSEQYGWY | failed
MSKDEIKKPVVLIYCDTIEGTNIYLKKICEGLEEEGVPFQIQQVEKVEDSVEVLAQNASRNSNLGIGIGVLKNGDCALLQRRLPPNLPIQTLRGEKYDPNLYRNIGINAARLAKNLPLVFA | not failed
MKKNYTYPFTAIVGQEEMKLALILNIINPAISGVLIRGEKGTAKSTAVRALADILPEIEVIAGIPFNLAPDEDDETIRECFTVTGHAMPDPDNLEVTMHKVQVVELPVGATEDRVVGTLDLEHALKTGEKRIEPGLLAAAHRGILYVDEVNLLDDHVVDVLLDSAAMGVNTIEREGVSFSHPARFTLVGTMNPEEGELRPQLLDRFGLCVHVGGIADPQDRVTVMERRFAFEQDQERFCSEWQGESSKLAERIVAARELYPSVTISREHLLGIAKSCLKVGVDGHRGDIIIMKTAKTIAAWEGRHCVGSDDIDRAVALALPHRIRRQPLQDMVMDVGSLLGSKCTTN | failed
DISKITDVAVMTVEGANDDISAPGQCIAALDLCTGLADSKKANHLEPGAGHYGIFAGRSWRDNIRPLVIDFMNTNSRKGKSLRPANKNSAA | failed
MTLVLILLALIAFIVLSTTRLKLHPFLALLAAALIAGFAYQVPTAEIVKTVTGGFGSILGYIGIVIVLGTIIGVILERSGAAITMAESVIRLLGERFPTLTMSIIGYLVSIPVFCDSGFVILNSLKNALAARMKISTIAMSVALATGLYATHTFVPPTPGPIAAAGNLGLDASLGLVIVVGLVVAFVTAMAGMWWANRFVGKDIPLVDDGQVVQTEEDFSELRARYGKLPSATQAFAPIFVPILLICLGSVAVFPSKPLGEGVLFACLNFLGQPVIALLVGLALACTLLKGQSKREEFHERVVEGIQSAAPILLITGAGGAFGAMLKITPLGDYLGSTLSALGIGLFMPFVVAAALKTAQGSTTVALVTTSALVAPLLPQLGLDSEMGRVLTVMAIGAGAMTVSHANDSFFWVVTQFSRMTVSTAYRAQTLATLVQGIAGMLAVWLLSLVLL | failed
MQENHLIDIARWSERPGPRGIPSICSAHPLVIEAAMLRAHREKAPVLIEATCNQVNQDGGYTGMTPEDFTRFVGAIADRIEFPREKILLGGDHLGPNPWKHLPADEAMAKAEAMITAYAKAGFTKLHLDTSMGCAGEPTALPDATTAARAARLAAVAEDAVGGRGGVLPVYIIGTEVPIPGGALEELDTLEVTAPEAAIETVRVHRAAFEEAGAAGAFSRVVGAVVQPGVEFGNENVIAYDRARAEKLSATLGQLHGMVFEAHSTDYQTPDALRELVADGFAILKVGPGLTFALREALYGLDQIAAFLFPAARERTLAEVTEAVMREEPANWAKYYHGSAEEQRLQRHFSYSDRIRYYWPHPKAAAAVDELMSLLDGVAIPETLISQFLAGSYARVRNGEVAPQAKPLALAAVDAVLQDYFAACRV | not failed
MGCICFKSWRRSSSSPSITSTVIDDLENVREYDADDDGGHYPLIFREFSLEQLRIATDGFSAGNIVSEHNDSVPNIVYKGKLGDGRRIAVKRFQRLSWPDPFEFINEAQAVGRLRSEHMANLIGCCCDDNERLLVAEYMPNGTLAKHLFHWEKRPMKWEMRLKVALHTARALEYCNDKGIDLYHDLNPYRIMFDKTGIPKLSCFGLMKNSHEGKIYSTNLAFAPPEYLRLGTVIAESVTFSFGTLLLDLMSGRHIPPNHALDLFRGKNYLVLMDSALDGQFSDEDRTELIHVASRCFKTEPEERPSIKFLKATLSRLQKRAKLCPINVKRPMSPPSKNLPEKTKPATESLKLTPFGDACSRADLSSIHELLEKLGYEEDNGVGNEFSFQMWTGEMQENMDYKKHGDAAFLAKDFDTAIEFYTEFMTGAPTVSPTVLARRCLCYLMTEMFSEALSDAMQAQVASPEWPIPLYLQAACLFKLEMEAEAKEALRHGSALEAY | failed
MTNLTNYHSHCLYCDGRANMEDFIRFAISEGFSSYGISSHAPLPFSTAWTMEWDRMDDYLSEFARLKEKYADKIELAIGLEIDYLNEESHPAIPRFQELPLDYRIGSVHMLYSPQGKVVDIDTPADIFRQLIDAHFEGDLDYVVHLYYKNLLRMVELGGFDILGHADKMHYNASCYRPGLLDEPWYDALVRDYFAEIARHGYIVEINTKSYHDLGTFYPNERYFPLLKELGIRVQVNSDAHYPERINNSRAEALAALKKVGFDTVVEWHGGQWKDMPLLQLEHHHHHH | not failed
